Data taken from patent publication US20240084003A1 (SIMCERE ZAIMING PHARMACEUTICAL, published 2024).
Positions count from the first letter of the chain named.

Legend:
[1] = biological target: T1, monkey CD22 (full length, on HEK293T cells) (monkey); test: FACS on HEK293T-monkey CD22 cells
T1 construct: NCBI XP_014979161.2; also called HEK293T-monkey CD22; HEK293T cells overexpressing monkey CD22
T1 chain: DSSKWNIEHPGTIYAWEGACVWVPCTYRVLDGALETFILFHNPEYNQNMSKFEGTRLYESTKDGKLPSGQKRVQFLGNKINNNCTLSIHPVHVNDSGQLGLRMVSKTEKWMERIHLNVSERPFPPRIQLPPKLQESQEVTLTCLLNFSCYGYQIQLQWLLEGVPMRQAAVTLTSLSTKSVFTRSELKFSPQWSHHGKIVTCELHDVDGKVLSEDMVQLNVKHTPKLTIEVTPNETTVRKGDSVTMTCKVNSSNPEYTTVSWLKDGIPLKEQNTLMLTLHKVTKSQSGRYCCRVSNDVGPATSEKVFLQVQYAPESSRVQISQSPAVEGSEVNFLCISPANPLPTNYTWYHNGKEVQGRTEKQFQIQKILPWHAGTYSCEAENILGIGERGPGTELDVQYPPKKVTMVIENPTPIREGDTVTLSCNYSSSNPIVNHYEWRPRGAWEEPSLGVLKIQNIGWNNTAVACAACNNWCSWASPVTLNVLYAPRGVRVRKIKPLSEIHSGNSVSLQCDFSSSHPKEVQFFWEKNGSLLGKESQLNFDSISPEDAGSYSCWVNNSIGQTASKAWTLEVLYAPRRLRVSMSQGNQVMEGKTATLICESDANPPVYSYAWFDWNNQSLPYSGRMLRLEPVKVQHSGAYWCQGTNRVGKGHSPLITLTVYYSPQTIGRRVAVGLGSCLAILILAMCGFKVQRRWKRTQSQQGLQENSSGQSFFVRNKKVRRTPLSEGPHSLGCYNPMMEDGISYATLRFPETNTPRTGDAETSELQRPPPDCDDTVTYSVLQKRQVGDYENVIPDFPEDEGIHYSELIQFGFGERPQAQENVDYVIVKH
From the text: The required cells were scale-up cultured in a T-75 cell culture flask to the logarithmic growth phase. For the adherent cell CHO-K1, the medium was aspirated, the cells were washed 2 times with PBS buffer, and then digested with trypsin. After the digestion was terminated, the cells were washed 2 times with PBS buffer. For suspension cell Raji, the medium supernatant was directly centrifuged and discarded, and the cell pellet was washed 2 times with PBS. After counting the cells in the previous step, the cell pellet was resuspended with [PBS+2% (w/w) BSA] blocking solution to 2×10⁶ cells/ml, and added to a 96-well FACS reaction plate at 50 μl/well, and then the chimeric antibody test sample was added at 50 μl/well, and incubated on ice for 2 hours. The mixture was centrifuged and washed 3 times with PBS buffer, Alexa Flour 488-labeled secondary antibody (purchased from Invitrogen, catalog number: A-11013) was added at 50 μl/well, and incubated on ice for 1 hour. The obtained mixture was centrifuged and washed 5 times with PBS, and FACS (FACS Canto™, purchased from BD Company) was used for detection and result analysis. Data analysis was performed by software (CellQuest) to obtain the mean fluorescence density (MFI)of the cells. And then software (GraphPad Prism8) was used for analysis, data fitting, and EC50 value calculation. […]

human CD22 domain1-4-His = biological target: T2, human CD22 domain1-4-His (human, UniProt P20273 20-425); test: ELISA, human CD22 domain1-4-His coated
T2 construct: also called hCD22 domain1-4-His; not shown: His tag
T2 sequence: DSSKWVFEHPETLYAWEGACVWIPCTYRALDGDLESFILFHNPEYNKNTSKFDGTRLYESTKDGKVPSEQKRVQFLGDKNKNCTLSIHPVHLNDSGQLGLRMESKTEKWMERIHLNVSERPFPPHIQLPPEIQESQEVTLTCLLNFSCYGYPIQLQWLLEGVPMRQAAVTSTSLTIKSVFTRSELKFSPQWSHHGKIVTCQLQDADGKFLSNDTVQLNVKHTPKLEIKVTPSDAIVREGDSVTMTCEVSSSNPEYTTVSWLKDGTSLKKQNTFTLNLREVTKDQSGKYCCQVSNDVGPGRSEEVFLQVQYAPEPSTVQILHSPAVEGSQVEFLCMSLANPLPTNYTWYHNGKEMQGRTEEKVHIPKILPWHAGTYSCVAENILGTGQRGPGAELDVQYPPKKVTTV

[2] = biological target: T1, monkey CD22 (full length, on HEK293T …); test: FACS, HEK293T-monkey CD22 cells (293T as parent cells)
From the text: The required cells were scale-up cultured in a T-75 cell culture flask to the logarithmic growth phase. For the adherent cell CHO-K1, the medium was aspirated, the cells were washed 2 times with PBS buffer, and then digested with trypsin. After the digestion was terminated, the cells were washed 2 times with PBS buffer. For suspension cell Raji, the medium supernatant was directly centrifuged and discarded, and the cell pellet was washed 2 times with PBS. After counting the cells in the previous step, the cell pellet was resuspended with [PBS+2% (w/w) BSA] blocking solution to 2×10⁶ cells/ml, and added to a 96-well FACS reaction plate at 50 μl/well, and then the chimeric antibody test sample was added at 50 μl/well, and incubated on ice for 2 hours. The mixture was centrifuged and washed 3 times with PBS buffer, Alexa Flour 488-labeled secondary antibody (purchased from Invitrogen, catalog number: A-11013) was added at 50 μl/well, and incubated on ice for 1 hour. The obtained mixture was centrifuged and washed 5 times with PBS, and FACS (FACS Canto™, purchased from BD Company) was used for detection and result analysis. Data analysis was performed by software (CellQuest) to obtain the mean fluorescence density (MFI)of the cells. And then software (GraphPad Prism8) was used for analysis, data fitting, and EC50 value calculation. […] The same method was used to detect the binding of the chimeric antibodies to endogenous CD22-negative cell MoLT4 cells (purchased from ATCC, CRL-1582) and CHO-K1 cells.
HEK293T-monkey CD22 cells were subjected to FACS detection and data analysis according to the method in Example 5.2.

B1: F1.280.1 (antibody, human IgG1, kappa, V domains shown)
VH: QIQLVQSGPELKKPGETVKISCKASGYTFTTYGMSWVKQTPGKGLTWMGWINTDSGVPTYADDFKRRFAFSLEASATTAYLQINNLKNEDTATYFCARGGPDYWGQGTTLTVSS
VL: DILLTQSPATLSVTPGETVSLSCRASQSIYKNLHWYHQKSHRSPRLLIKYASDSISGIPSRFTGSGSGTNFTLSINSVKPEDEGIYYCLQGYIVPLTFGAGTKLELKR
notes: Human-murine chimeric IgG1, kappa
**Q.** Does B1 bind [1]?
**A.** no binding

**Q.** And the “EC50 (read off the curve)” value (human CD22 domain1-4-His)?
**A.** ~50 pM

B2: F1.60.9 (antibody, human IgG1, kappa, V domains shown)
VH: QVQLKESGPGLVAPSQSLSITCTVSGLSLNNYGVSWVRQPPGKGLEWLGVIWGDGSTNYHSALISRLSISKDNSKSQVFLKLNSLHTDDTATYYCAINWGDYWGQGTTLIVSS
VL: DIKMTQSPSSMNASLGERVTITCKASQDINSYLSWFQQKPGKSPKILIYRANRLIDGVPSRFSGSGSGQDYSLTISSLEYEDMGIYYCLQYGVFPLTFGAGTKLELKR
notes: as for B1
**Q.** Which results are given for B2?
**A.** binding result [2]: no binding (tested: 10 nM); binding result (human CD22 domain1-4-His): no binding (tested: 100 nM)

B3: F1.245.2 (antibody, human IgG1, kappa, V domains shown)
VH: EVQLQQSGAELVKPGASVKLSCTGSGFNIKDYYIHWVKQRTEQGLEWMGRIDPEDGETEYAPKFQDEATITSDTSSNTAYLQLSSLTYEDTAVYYCAREAAGYFYRGSSYGYFDVWGTGTTVTVSS
VL: DFQMTQTTSFLSASLGDRVTISCSASQDISNYLNWYQQKPDGTVKLLIYYTSSLHSGVPSRFSGSGSGTDYSLTISNLEPEDIATYYCQQYSMLPYTFGGGTKLEMER
notes: as for B1
**Q.** Does B3 bind [2]?
**A.** no binding (tested: 10 nM)

**Q.** What about the “EC50 (read off the curve)” value (human CD22 domain1-4-His) of the same binder?
**A.** ~20 pM

B4: F1.257.3 (antibody, human IgG1, kappa, V domains shown)
VH: QVQLQQSGPELARPGASVKLSCKASGYTFTSYGISWVKQRTGQDLEWIGEIYPKLGTTYYNEKFKDKATLTTDRSSSTAYMALRSLTSEDSAVYFCACPHYYATRGGDYWGQGTTLTVSS
VL: EIVLTQSPATLSVTPGDSVTFSCRASQSISNHLHWYQQKSHESPRLLIRYASQSISGIPSRFSGSGSGTDFTLSLSSVETEDFGVYFCQQSHSWPYTFGGGTKLEIAR
notes: as for B1
**Q.** Which results are given for B4?
**A.** binding result [2]: no binding (tested: 10 nM); EC50 (read off the curve) (human CD22 domain1-4-His): ~300 pM

B5: F2.343.16 (antibody, human IgG1, lambda, V domains shown)
VH: QVQLKQSGPGLVQPSQSLSITCTVSGFSLTGYGVQWVRQSPGKGLEWLGVIWGGGGTDYNAAFISRLNIIKDNSKSQVFFKMNSLQADDTAIYYCARYSKYGHFDVWGTGTAVTVSS
VL: QAVVTQESALTTSPGETVTLTCRSSTGAVTTSNYANWVQEKPDHLFTGLIGGTYNRVPGVPARFSGSLIGDKAALTITGAQTEDEAIYFCALWYSNHFWVFGGGTKLTVLG
notes: Human-murine chimeric IgG1, lambda
**Q.** Does B5 bind [1]?
**A.** no binding

**Q.** And the “EC50 (read off the curve)” value (human CD22 domain1-4-His)?
**A.** ~60 pM

B6: F2.70.2 (antibody, human IgG1, lambda, V domains shown)
VH: EVQLVESGGGLVKPGGSLKLSCAASGFTFSDYGMNWFRQAPEKGLEWVAYISRGSHTIYYADTVKGRFTISRDNAKNTLFLQMTSLRSNDTAMYYCVRMAGYYAMDYWGQGTSVTVSS
VL: QLVLTQSSSASFSLGASAKLTCTLSSQHSSYIIEWYQQQPLKPPKYVMELKKDGSHSTGDGIPDRFSGSSSGADRYLSISNIQPEDEAIYICGVGDTIKEQFVYVFGGGTKVTVLG
notes: as for B5
**Q.** What does the source list for B6?
**A.** binding result [2]: no binding (tested: 10 nM); EC50 (read off the curve) (human CD22 domain1-4-His): ~30 pM

B7: F2.180.16 (antibody, human IgG1, lambda, V domains shown)
VH: EVKLVESGGGLVLPGGSLKISCAASGFTFSDYYMYWIRQTPDKRLEWVAYISNTGYSTFYPDSVKGRFTVSRDNAKNTLYLQMSRLQSEDTAMYYCARHGILYAMDYWGQGTSVTVSS
VL: B6 VL with L2P, H28Y, S30T, I32T, E34G, K52H, H56R, S57H, I89T, V103M
notes: as for B5
**Q.** Does B7 bind [2]?
**A.** no binding (tested: 10 nM)

**Q.** Does B7 bind (human CD22 domain1-4-His)?
**A.** no binding (tested: 100 nM)

B8: F2.104.10 (antibody, human IgG1, lambda, V domains shown)
VH: B6 VH with L11F, K76E, V114L
VL: B6 VL with L50V, P84S
notes: as for B5
**Q.** What does the source list for B8?
**A.** binding result [2]: no binding (tested: 10 nM); EC50 (read off the curve) (human CD22 domain1-4-His): ~40 pM
